The target of experiment [1] is T1, human MUC16 (mucin 16), endogenously expressed on cells (human).
T1 construct: Endogenous MUC16 on OVCAR-3 / OVCAR3-Luc / PEO-1 / HPAC cells; also called hMUC16
Description: MSD electrochemiluminescence cell binding; RLU ratio OVCAR-3/SK-OV-3; Ab 1.9 nM.

Experiment [2] has as its target T2, soluble monomeric human MUC16, truncated format encompassing the last five SEA domains of Mucin-16 (human).
T2 construct: also called hMUC16.mmh; MUC16 "nub"
T2 chain: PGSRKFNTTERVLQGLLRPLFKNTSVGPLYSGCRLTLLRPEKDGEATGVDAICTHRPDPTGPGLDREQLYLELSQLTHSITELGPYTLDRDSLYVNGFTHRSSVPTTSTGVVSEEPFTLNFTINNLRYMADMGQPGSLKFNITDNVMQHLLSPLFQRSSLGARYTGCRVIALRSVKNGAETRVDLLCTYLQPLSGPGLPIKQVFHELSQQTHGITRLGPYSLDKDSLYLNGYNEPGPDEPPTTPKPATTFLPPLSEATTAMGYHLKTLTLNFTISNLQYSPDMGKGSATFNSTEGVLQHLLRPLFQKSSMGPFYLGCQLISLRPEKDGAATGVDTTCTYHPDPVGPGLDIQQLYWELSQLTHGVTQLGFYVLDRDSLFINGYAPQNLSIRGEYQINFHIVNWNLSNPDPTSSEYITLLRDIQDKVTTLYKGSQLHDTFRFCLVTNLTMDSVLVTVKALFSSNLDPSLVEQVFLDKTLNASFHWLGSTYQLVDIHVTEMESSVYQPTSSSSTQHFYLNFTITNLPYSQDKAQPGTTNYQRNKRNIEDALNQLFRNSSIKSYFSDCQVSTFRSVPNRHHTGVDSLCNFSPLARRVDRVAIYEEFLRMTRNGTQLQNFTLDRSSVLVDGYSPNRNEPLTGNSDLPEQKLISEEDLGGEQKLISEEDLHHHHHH
In words: SPR Biacore, antibody captured, soluble monomeric hMUC16.mmh injected, 25C.

The target of experiment [3] is T1, human MUC16 (mucin 16), endogenously …. Description: MSD electrochemiluminescence cell binding; RLU ratio OVCAR-3/SK-OV-3; Ab 16.7 nM.
For experiment [4], the target named is T3, MUC16 "short" construct expressed on PC3 cells (PC3/MUC16 short) (human).
T3 construct: Transfected into PC3/ATCC cells; part of SEA12, SEA13-SEA16, C-terminal non-SEA region, transmembrane region and cytoplasmic domain; also called "nub" portion of MUC16 without the repeat regions
T3 chain: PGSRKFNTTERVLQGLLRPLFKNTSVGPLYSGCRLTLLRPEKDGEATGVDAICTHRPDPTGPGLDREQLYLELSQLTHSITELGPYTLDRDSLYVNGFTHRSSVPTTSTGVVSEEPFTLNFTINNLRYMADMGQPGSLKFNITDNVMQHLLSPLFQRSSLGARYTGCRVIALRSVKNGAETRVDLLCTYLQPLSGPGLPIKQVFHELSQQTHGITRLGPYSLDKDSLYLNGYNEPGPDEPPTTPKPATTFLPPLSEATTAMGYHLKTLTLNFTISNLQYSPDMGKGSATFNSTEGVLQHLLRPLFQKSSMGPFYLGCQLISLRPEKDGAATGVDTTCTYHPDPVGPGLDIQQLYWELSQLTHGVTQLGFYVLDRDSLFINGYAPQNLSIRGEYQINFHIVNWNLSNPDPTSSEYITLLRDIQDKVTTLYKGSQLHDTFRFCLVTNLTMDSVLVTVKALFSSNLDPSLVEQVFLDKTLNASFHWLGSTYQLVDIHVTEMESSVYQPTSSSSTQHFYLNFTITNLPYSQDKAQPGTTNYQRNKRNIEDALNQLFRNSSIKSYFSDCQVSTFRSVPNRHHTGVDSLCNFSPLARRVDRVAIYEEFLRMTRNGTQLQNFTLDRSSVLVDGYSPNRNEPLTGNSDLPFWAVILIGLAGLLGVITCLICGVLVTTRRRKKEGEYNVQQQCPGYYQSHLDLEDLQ
Description: IHC on FFPE cell pellets, PC3/MUC16 Short cells.

B1: H2M7138N (antibody, mouse IgG2, V domains shown)
VH: QVQLVQSGAEVKKPGASVKVSCKASGYTFTSSDINWVRQATGQGLEWVGWMNPNYGYTGSARKFQDRVTMTRNTSLSTAYLELHSLRSEDTAVYYCARVTYCSSVTSCFRPFTYWGQGTLVTVSA
VL: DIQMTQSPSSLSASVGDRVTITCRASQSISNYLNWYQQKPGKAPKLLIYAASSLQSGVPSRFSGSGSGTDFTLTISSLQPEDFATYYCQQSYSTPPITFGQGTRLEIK
notes: Mouse IgG2 constant region (H2M); also called H2aM7138N
The term Kd denotes the free concentration of one partner at which half of the binding sites on the other are occupied at equilibrium, for simple one-to-one binding. A word on the koff: it is a measure of how fast the partners let go of each other. Low values mean a long-lived complex, high ones a short-lived complex. Broadly, the kon is a measure of how fast the partners come together. B1: the “Ratio: anti-MUC16 Binding OVCAR-3/SK-OV-3” value in experiment [1] worked out at 82 ratio. Further, in experiment [2], the affinity, expressed as Kd, was 1.25 nM; the koff was 9.25e-05 s⁻¹; the kon came to 74100 M⁻¹ s⁻¹; the “t ½” value came out at 2.08 h. Further, the “Ratio: anti-MUC16 Binding OVCAR-3/SK-OV-3” value in experiment [3] stood at 50 ratio. For the same molecule, the binding result in experiment [4] is “binds”.

Source of the values: patent publication US20180112001A1 (Regeneron, published 2018).
